B1: Pistol ribozyme (parent)
chain: GGGUCGUUGUUCCAUAAUCGCGUGGAUAUGGCACGCAAGUUUCUACCGGGCACCGUAAAUGUCCGACUGGAGCCGUUCGGGCGGCUAUAAACAGACCUCAGGCCCGAAGCGUGGCGGCACCUGCCGCCGGUGGUAAAAAAGAUCGGAAGAGCACACGUCU

Variants of: B1
Assay: aptazyme ON/OFF ratio, guanine; higher = stronger switching; co-transcriptional cleavage with and without guanine

Variant | aptazyme ON/OFF ratio
GGGUCGUACGAUCAUAAUCGCGUGGAUAUGGCACGCAAGUUUCUACCGGGCACCGUAAAUGUCCGACUGGAGCCGUUCGGGCGGCUAUAAACAGACCUCAGGCCCGAAGCGUGGCGGCACCUGCCGCCGGUGGUAAAAAAGAUCGGAAGAGCACACGUCU [U8A G9C U10G U11A C12U] | 1.06
GGGUCGUACGAGCAUAAUCGCGUGGAUAUGGCACGCAAGUUUCUACCGGGCACCGUAAAUGUCCGACUGGAGCCGUUCGGGCGGCUAUAAACAGACCUCAGGCCCGAAGCGUGGCGGCACCUGCCGCCGGUGGUAAAAAAGAUCGGAAGAGCACACGUCU [U8A G9C U10G U11A C12G] | 1.28
GGGUCGUACGAACAUAAUCGCGUGGAUAUGGCACGCAAGUUUCUACCGGGCACCGUAAAUGUCCGACUGGAGCCGUUCGGGCGGCUAUAAACAGACCUCAGGCCCGAAGCGUGGCGGCACCUGCCGCCGGUGGUAAAAAAGAUCGGAAGAGCACACGUCU [U8A G9C U10G U11A C12A] | 1.31
GGGUCGUACGCAAAUAAUCGCGUGGAUAUGGCACGCAAGUUUCUACCGGGCACCGUAAAUGUCCGACUGGAGCCGUUCGGGCGGCUAUAAACAGACCUCAGGCCCGAAGCGUGGCGGCACCUGCCGCCGGUGGUAAAAAAGAUCGGAAGAGCACACGUCU [U8A G9C U10G U11C C12A C13A] | 1.17
GGGUCGUACGCAUAUAAUCGCGUGGAUAUGGCACGCAAGUUUCUACCGGGCACCGUAAAUGUCCGACUGGAGCCGUUCGGGCGGCUAUAAACAGACCUCAGGCCCGAAGCGUGGCGGCACCUGCCGCCGGUGGUAAAAAAGAUCGGAAGAGCACACGUCU [U8A G9C U10G U11C C12A C13U] | 1.21
GGGUCGUACGCAGAUAAUCGCGUGGAUAUGGCACGCAAGUUUCUACCGGGCACCGUAAAUGUCCGACUGGAGCCGUUCGGGCGGCUAUAAACAGACCUCAGGCCCGAAGCGUGGCGGCACCUGCCGCCGGUGGUAAAAAAGAUCGGAAGAGCACACGUCU [U8A G9C U10G U11C C12A C13G] | 1.12
GGGUCGUACGAGUAUAAUCGCGUGGAUAUGGCACGCAAGUUUCUACCGGGCACCGUAAAUGUCCGACUGGAGCCGUUCGGGCGGCUAUAAACAGACCUCAGGCCCGAAGCGUGGCGGCACCUGCCGCCGGUGGUAAAAAAGAUCGGAAGAGCACACGUCU [U8A G9C U10G U11A C12G C13U] | 1.15
GGGUCGUACGAGAAUAAUCGCGUGGAUAUGGCACGCAAGUUUCUACCGGGCACCGUAAAUGUCCGACUGGAGCCGUUCGGGCGGCUAUAAACAGACCUCAGGCCCGAAGCGUGGCGGCACCUGCCGCCGGUGGUAAAAAAGAUCGGAAGAGCACACGUCU [U8A G9C U10G U11A C12G C13A] | 1.26
GGGUCGUACGAGGAUAAUCGCGUGGAUAUGGCACGCAAGUUUCUACCGGGCACCGUAAAUGUCCGACUGGAGCCGUUCGGGCGGCUAUAAACAGACCUCAGGCCCGAAGCGUGGCGGCACCUGCCGCCGGUGGUAAAAAAGAUCGGAAGAGCACACGUCU [U8A G9C U10G U11A C12G C13G] | 1.52
GGGUCGUACGGCCAUAAUCGCGUGGAUAUGGCACGCAAGUUUCUACCGGGCACCGUAAAUGUCCGACUGGAGCCGUUCGGGCGGCUAUAAACAGACCUCAGGCCCGAAGCGUGGCGGCACCUGCCGCCGGUGGUAAAAAAGAUCGGAAGAGCACACGUCU [U8A G9C U10G U11G] | 1.07
GGGUCGUACGACCAUAAUCGCGUGGAUAUGGCACGCAAGUUUCUACCGGGCACCGUAAAUGUCCGACUGGAGCCGUUCGGGCGGCUAUAAACAGACCUCAGGCCCGAAGCGUGGCGGCACCUGCCGCCGGUGGUAAAAAAGAUCGGAAGAGCACACGUCU [U8A G9C U10G U11A] | 1.03
GGGUCGUACGCCCAUAAUCGCGUGGAUAUGGCACGCAAGUUUCUACCGGGCACCGUAAAUGUCCGACUGGAGCCGUUCGGGCGGCUAUAAACAGACCUCAGGCCCGAAGCGUGGCGGCACCUGCCGCCGGUGGUAAAAAAGAUCGGAAGAGCACACGUCU [U8A G9C U10G U11C] | 1.05
GGGUCGUACGCCAAUAAUCGCGUGGAUAUGGCACGCAAGUUUCUACCGGGCACCGUAAAUGUCCGACUGGAGCCGUUCGGGCGGCUAUAAACAGACCUCAGGCCCGAAGCGUGGCGGCACCUGCCGCCGGUGGUAAAAAAGAUCGGAAGAGCACACGUCU [U8A G9C U10G U11C C13A] | 1.11
GGGUCGUACGCCGAUAAUCGCGUGGAUAUGGCACGCAAGUUUCUACCGGGCACCGUAAAUGUCCGACUGGAGCCGUUCGGGCGGCUAUAAACAGACCUCAGGCCCGAAGCGUGGCGGCACCUGCCGCCGGUGGUAAAAAAGAUCGGAAGAGCACACGUCU [U8A G9C U10G U11C C13G] | 1.06
GGGUCGUACGCCUAUAAUCGCGUGGAUAUGGCACGCAAGUUUCUACCGGGCACCGUAAAUGUCCGACUGGAGCCGUUCGGGCGGCUAUAAACAGACCUCAGGCCCGAAGCGUGGCGGCACCUGCCGCCGGUGGUAAAAAAGAUCGGAAGAGCACACGUCU [U8A G9C U10G U11C C13U] | 1.03
GGGUCGUACGCUAAUAAUCGCGUGGAUAUGGCACGCAAGUUUCUACCGGGCACCGUAAAUGUCCGACUGGAGCCGUUCGGGCGGCUAUAAACAGACCUCAGGCCCGAAGCGUGGCGGCACCUGCCGCCGGUGGUAAAAAAGAUCGGAAGAGCACACGUCU [U8A G9C U10G U11C C12U C13A] | 1.13
GGGUCGUACGCUUAUAAUCGCGUGGAUAUGGCACGCAAGUUUCUACCGGGCACCGUAAAUGUCCGACUGGAGCCGUUCGGGCGGCUAUAAACAGACCUCAGGCCCGAAGCGUGGCGGCACCUGCCGCCGGUGGUAAAAAAGAUCGGAAGAGCACACGUCU [U8A G9C U10G U11C C12U C13U] | 1.16
GGGUCGUACGCUGAUAAUCGCGUGGAUAUGGCACGCAAGUUUCUACCGGGCACCGUAAAUGUCCGACUGGAGCCGUUCGGGCGGCUAUAAACAGACCUCAGGCCCGAAGCGUGGCGGCACCUGCCGCCGGUGGUAAAAAAGAUCGGAAGAGCACACGUCU [U8A G9C U10G U11C C12U C13G] | 1.18
